From patent publication US20210284690A1

Experiments:
[1] = biological target: extracellular part of human CD40L (aa 108-261 recombinantly produced in E. coli) (human) (UniProt P29965); experiment: BLI (OctetRED96), Fab captured on anti-human Fab-CH1 (FAB2G) sensors, soluble CD40L 2.5-80 nM, 1:1 global fit; purchased
IL-1β = experiment: cell-based or functional assay

Sequence of extracellular part of human CD40L (aa 108-261 recombinantly produced in E. coli) (human) (P29965 108-261 limits assumed): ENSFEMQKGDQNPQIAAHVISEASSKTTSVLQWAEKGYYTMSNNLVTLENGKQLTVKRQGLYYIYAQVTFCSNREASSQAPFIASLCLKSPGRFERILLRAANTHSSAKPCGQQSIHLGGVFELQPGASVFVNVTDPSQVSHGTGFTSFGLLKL

Row | Kd [1] | NHDF IC50 (pM); inhibition of IL-1β induced IL-6 release from NHDF cells (IL-1β) | Substance
1 | < 0.3 nM |  | Dapirolizumab Fab
2 |  | 70 pM | Met-huIL-1Ra (Anakinra) (from UniProt P18510 26-177) (ligand)
3 |  | 900 pM | PEG(L30kDa)-Met-huIL-1Ra (from UniProt P18510 26-177) (ligand)
